Article PMC4288360

Biological target: T1, Recombinant mouse BMP-9 (bone morphogenetic protein 9) (mouse) (UniProt Q9WV56)
T1 sequence: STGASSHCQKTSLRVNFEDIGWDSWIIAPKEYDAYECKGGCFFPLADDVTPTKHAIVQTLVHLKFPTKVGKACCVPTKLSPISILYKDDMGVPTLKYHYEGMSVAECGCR

- inhibition of BMP-9 (50 ng/ml)-induced alkaline phosphatase activity in murine VSMCs by ALK1-Fc (250 ng/ml and 1 μg/ml; value at 1 μg/ml), 4 days; blocks BMP-9 acting on ALK1 of the cells: 33%
B1: Activin receptor-like kinase-1 fusion protein (ALK1-Fc) (Fc fusion)
chain: DLAKPSKLVNCTCESPHCKRPFCQGSWCTVVLVREQGRHPQVYRGCGSLNQELCLGRPTEFLNHHCCYRSFCNHNVSLMLEATQTPSEEPEVDAHLP
